Laboratory results as given in patent US20160108115 (published 2016).

How the values were obtained:
FcγRIIIb [1] = target: T1, FcγRIIIb (human, UniProt O75015); assay: ELISA, immune complexes
T1 chain: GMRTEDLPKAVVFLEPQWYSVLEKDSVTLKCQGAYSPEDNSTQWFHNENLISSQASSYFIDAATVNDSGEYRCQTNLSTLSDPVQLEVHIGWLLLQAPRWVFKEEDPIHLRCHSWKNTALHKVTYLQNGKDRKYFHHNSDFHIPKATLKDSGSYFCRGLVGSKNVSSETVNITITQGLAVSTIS

FcγRIIIa [2] = target: T2, FcγRIIIa (human, UniProt P08637); assay: SPR, pH 7.4
[3] = target: the molecule itself; assay: SPR, pH 7.4, self-association, GMP batch
[4] = target: the molecule itself; assay: SPR, pH 7.4, self-association, engineering batch
FcγRIIa = target: T3, FcγRIIa (human, UniProt P12318); assay: SPR, pH 7.4
T3 chain: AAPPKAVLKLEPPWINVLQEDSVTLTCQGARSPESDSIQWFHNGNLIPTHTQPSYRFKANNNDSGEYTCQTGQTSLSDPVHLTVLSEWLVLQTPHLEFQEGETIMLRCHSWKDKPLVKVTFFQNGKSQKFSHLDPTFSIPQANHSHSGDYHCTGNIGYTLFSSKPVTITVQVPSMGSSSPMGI

FcγRI [5] = target: T4, FcγRI (human, UniProt P12314); assay: SPR, pH 7.4
T4 chain: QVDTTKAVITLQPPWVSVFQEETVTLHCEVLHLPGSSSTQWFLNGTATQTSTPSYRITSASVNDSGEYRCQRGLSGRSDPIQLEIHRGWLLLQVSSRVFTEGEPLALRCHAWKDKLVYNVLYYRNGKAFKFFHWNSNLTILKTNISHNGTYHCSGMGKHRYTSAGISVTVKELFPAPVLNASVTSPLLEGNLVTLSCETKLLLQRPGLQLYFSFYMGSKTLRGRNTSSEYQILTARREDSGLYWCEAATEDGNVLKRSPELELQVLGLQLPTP

FcγRI [6] = target: T4, FcγRI; assay: ELISA, immune complexes
FcγRIIIb [7] = target: T1, FcγRIIIb; assay: SPR, pH 7.4
FcγRIIb/c = target: T5, FcγRIIb/c (human, UniProt P31994); assay: SPR, pH 7.4
T5 chain: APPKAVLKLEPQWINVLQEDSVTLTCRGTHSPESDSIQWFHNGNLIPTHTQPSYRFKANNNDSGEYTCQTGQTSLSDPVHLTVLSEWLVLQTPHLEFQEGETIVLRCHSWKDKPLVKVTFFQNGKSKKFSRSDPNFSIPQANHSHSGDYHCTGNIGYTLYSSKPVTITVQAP

FcγRIIIa [8] = target: T2, FcγRIIIa; assay: ELISA, immune complexes

T2 sequence (P08637 17-208): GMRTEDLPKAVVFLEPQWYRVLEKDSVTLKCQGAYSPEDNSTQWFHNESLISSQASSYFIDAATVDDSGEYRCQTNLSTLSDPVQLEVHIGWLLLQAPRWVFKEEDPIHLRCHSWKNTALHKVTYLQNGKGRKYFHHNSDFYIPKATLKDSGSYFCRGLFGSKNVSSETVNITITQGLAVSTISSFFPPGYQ

B1: BNJ441 (full length) (antibody)
chain 1: QVQLVQSGAEVKKPGASVKVSCKASGHIFSNYWIQWVRQAPGQGLEWMGEILPGSGHTEYTENFKDRVTMTRDTSTSTVYMELSSLRSEDTAVYYCARYFFGSSPNWYFDVWGQGTLVTVSSASTKGPSVFPLAPCSRSTSESTAALGCLVKDYFPEPVTVSWNSGALTSGVHTFPAVLQSSGLYSLSSVVTVPSSNFGTQTYTCNVDHKPSNTKVDKTVERKCCVECPPCPAPPVAGPSVFLFPPKPKDTLMISRTPEVTCVVVDVSQEDPEVQFNWYVDGVEVHNAKTKPREEQFNSTYRVVSVLTVLHQDWLNGKEYKCKVSNKGLPSSIEKTISKAKGQPREPQVYTLPPSQEEMTKNQVSLTCLVKGFYPSDIAVEWESNGQPENNYKTTPPVLDSDGSFFLYSRLTVDKSRWQEGNVFSCSVLHEALHSHYTQKSLSLSLGK
chain 2: DIQMTQSPSSLSASVGDRVTITCGASENIYGALNWYQQKPGKAPKLLIYGATNLADGVPSRFSGSGSGTDFTLTISSLQPEDFATYYCQNVLNTPLTFGQGTKVEIKRTVAAPSVFIFPPSDEQLKSGTASVVCLLNNFYPREAKVQWKVDNALQSGNSQESVTEQDSKDSTYSLSSTLTLSKADYEKHKVYACEVTHQGLSSPVTKSFNRGEC
**Q.** Does B1 bind (FcγRIIIb [1])?
**A.** Result: no binding

**Q.** And the Kd (FcγRIIIa [2])?
**A.** Its Kd is 7.23 µM.

**Q.** What about the Kd [3] of the same binder?
**A.** Its Kd is 270 µM.

**Q.** What about the Kd [4] of the same binder?
**A.** The Kd was 7100 µM.

**Q.** What about the Kd (FcγRIIa) of the same binder?
**A.** Its Kd is 2.31 µM.

**Q.** What about the Kd (FcγRI [5]) of the same binder?
**A.** Its Kd is 3.75 µM.

**Q.** Does B1 bind (FcγRI [6])?
**A.** Result: no binding

**Q.** What about the Kd (FcγRIIIb [7]) of the same binder?
**A.** The Kd was 3.33 µM.

**Q.** What about the Kd (FcγRIIb/c) of the same binder?
**A.** The Kd was 8.09 µM.

**Q.** Does B1 bind (FcγRIIIa [8])?
**A.** Result: no binding
